Measured values as given in article PMC2185538, “Purification of the full-length Xenopus interphotoreceptor retinoid binding protein and growth of diffraction-quality crystals” (Molecular Vision, 2007).

Biological target: the molecule itself
Test: SEC; Sephacryl S-300HR 2.6 x 100 cm, 25 mM Tris-HCl pH 7.5 at 4 °C, 50 mM NaCl, 1 mM DTT; dimer between elution volumes 212 and 250 ml

B1: recombinant full-length four-module Xenopus interphotoreceptor retinoid-binding protein (natural protein)
chain: not shown
notes: begins FQPSL; also called xIRBP; Xenopus IRBP; source: E. coli Top10, thioredoxin fusion cleaved with enterokinase, purified (HisTrap twice, Sephacryl S-300HR); not shown: thioredoxin with His-patch, N-terminal, cleaved
stoichiometry N: 2
